Assay [1] has as its target T1, SARS-CoV-2 S protein, C-terminally truncated (pSARS-CoV2-S_trunc), ancestral, on 293T cells (SARS-CoV-2 ancestral (Wuhan), UniProt P0DTC2). Put plainly: cell-based or functional assay.
For assay [2], the target named is T1, SARS-CoV-2 S protein, C-terminally …. Put plainly: flow cytometry on cells. For orientation: A flow cytometer gives signals particle by particle.
The target in assay [3] is SARS-CoV-2 fusion peptide (FP) peptide 812…831 (SARS-CoV-2 ancestral, Biotin-Ahx at the N-terminus; C-terminal amidation). Kind of assay: crystal structure.

B1: fp.006 monoclonal antibody (IgG) (antibody, V domains shown)
VH: EVQLVESGGGVVQPGGSLRLSCAASGFNFNNYALHWVRQAPGKGLEWVAIISYEARNKKYGVSVMGRFSISRDNSKSIMYLEMNSLRVEDTGVYYCARDLFLSDYDRSGYDPTRGGFDHWGQGTLVTVSS
VL: EIVMTQSPATLSVSPGERATLSCRASQSVSSSLAWYQHRFGQAPRLLISGASTRATGIPGRFSGSGSGTEFTLTISSLQSEDVAVYYCQQYGDWPLVTFGGGTKVEIK
As for B1, in assay [1], the “IC50 of neutralisation of SARS-CoV-2 pseudovirus (ancestral)” value came to 0.737 µg/mL. Further, the “fold increase of binding with soluble ACE2” value in assay [2] is 5.8 fold.

B2: fp.006 Fab (Fab, V domains shown)
VH: EVQLVESGGGVVQPGGSLRLSCAASGFNFNNYALHWVRQAPGKGLEWVAIISYEARNKKYGVSVMGRFSISRDNSKSIMYLEMNSLRVEDTGVYYCARDLFLSDYDRSGYDPTRGGFDHWGQGTLVTVSS
VL: EIVMTQSPATLSVSPGERATLSCRASQSVSSSLAWYQHRFGQAPRLLISGASTRATGIPGRFSGSGSGTEFTLTISSLQSEDVAVYYCQQYGDWPLVTFGGGTKVEIK
Turning to B2, the binding result in assay [3] is listed as “binds”.

B3: sd1.040 monoclonal antibody (IgG) (antibody, V domains shown)
VH: QVQLVQSGAEVKKPGASVKVSCKASGYTFTSFYIHWVRQAPGQGLEWMGIIDPSGGSTSYPQKFQGRVTMTRDTSTSTVYMDLSSLRSEDTAVYYCTRDGSAGDNSWFDPWGQGTLVTVSS
VL: not shown
With B3, the “IC50 of neutralisation of SARS-CoV-2 pseudovirus (ancestral)” value in assay [1] was found to be 0.245 µg/mL.

For the origin of these results see publication PMC9727766 (bioRxiv, 2022).
